A protein production outcome set (Wang et al. 2014)

Experiment: label from the status in PepcDB records

| Sequence | protein production |
| --- | --- |
| MSLYEWLNALPKAELHLHLEGTLEPELLFALAERNRIALPWNDVETLRKAYAFNNLQEFLDLYYAGADVLRTEQDFYDLTWAYLQKCKAQNVVHVEPFFDPQTHTDRGIPFEVVLAGIRAALRDGEKLLGIRHGLILSFLRHLSEEQAQKTLDQALPFRDAFIAVGLDSSEVGHPPSKFQRVFDRARSEGFLTVAHAGEEGPPEYIWEALDLLKVERIDHGVRAFEDERLMRRLIDEQIPLTVCPLSNTKLCVFDDMSQHTILDMLERGVKVTVNSDDPAYFGGYVTENFHALQQSLGMTEEQARRLAQNSLDARLVKEGHHHHHH | not failed |
| SDLPDSASRVFCGRILSMVNTDDVNAIILAQKNMLDRFEKTNEMLLNFNNLSSARLQQMSERFLHHTRTLVEMKRDLDSIFRRIRTLKGKLARQHPEAFSHIPEASFLEEEDEDPIPPSTTTTIATSEQSTGSCDTSPDTVSPSLSPGFEDLSHVQAGSPAINGRSQTDDEEMTGE | failed |
| MKKQELIHLHGLLAQVQNHYEAESGTEVDHDEYEELGVKPTSIHKSKTDHKAAVFAIADGIASEMADETKEPVSAAADLEHHHHHH | not failed |
| MTHQVIDCLGVVLAGGLSSRMGQDKAQLKRLQKTTDPSAKSAHSMLDFSKQLLADAGIKNIVISGDNHQIPDRVPHAGPVGGIYSVLSHYLANSPEHLQPKALLILPVDLPLMTASALTELRLKGELSHKATFFSDRQKNRHHIPLYLPNNAFLNMFLMQAFHREELLANSKGNNKKNGPSVRAMLEQVPHQAIASLNNQVLFNTNTPEQWQQAQQKF | failed |
| MTLVSVVLPVYQGAPWIRGALDCLAAQTHRPLEILVVDDASSDGTPAVVEDWRARHPDLSVRLIVRPENGGPGVARNDALALARGAYVAFLDADDRCVPWRLARQLARLEAEPGLGSVGAWYDMVDADGTPVAARRLSVTAGEMAWAALIHPPFLLSTLMTRRALCRPGIFAPRHQGEDAPAQRRLLWQAPAAMIEEVLVTYRTDPHRPQDPRMGVAMAEDLAPLTGPLSAAEAWALHDALLAFPNRVTPAAIAAVSGLFTLLGVFRGLRPAWMTRPEYNRLFEGYLDLAAPFLAAHGESLLAPPSPQAPRVAPWMGPWEAEWRAGEARSDRPRPKEIFPPVGGDSPSKLSG | failed |
| MVMIMELLYAITAFILGMLHALEPGHGKSVVAAYILGTKADLKDAILLGTTITISHTAVIFLLGILSIYLLESLNVDVVHDMMSVVGGLILIAVGIWIIRSYLHPHEHKVDTKKGVITLGLSAGLVPCPAALAVLLLSISSGNLIDGLIYVAIFSIGLAISLTGLAVAFVESKELIKKYVGNRKVSKLPLISGSIIILIGLYTIAHPILEHAIV | failed |
| MDFSPPTTTADQSRRGFLKKSLAVSATVAAIGSLPRLSAAEPLTQRYPDPLVGVLDDSFLDIRIFNASVEKLATGMRWAEGPVWVGDGRYLLVSDIANNRIMRWDEVTGALSVYREHSNFSNGMCRDRQGRLLVCEGSSTTSEGRRVTRTEYNGRITVLADSFDGKPFNSPNDIVCKHDGSIWFTDPTFQANSDYEGHKVKQEQPFGVYRIDPSSGKVSRVIDDLAGPNGLCFSPDEKTLYVVEGRAKPNGLIWAIAVNEDGTLGERRKHVEGLEYAAIDGIKCDESGNLWCGWGGNGNPKADLEKLDGVRVFNPQGKAIGHISLPERCANLCFGGREGNRLFMASSHSLYSVFVNARGATLA | failed |
| MDNRSASLHSDIDTVLNNYDYDFAEVEIAVLGNGHINNTYKLTTPEVEFVLQQINHDVFPKTAELSSNAQKINLHLQRQKNIGNYPLSIPQQILSKTGETYSKVGTNYWRLMEFISNSYTLEEVESPEQAALVANAFAEFSCTLSDFPVEELAVIIEDFHDISFRMRQLNEAVENDLQDRLSSCQTLVNFCLDQQDFINHVIDISKKLPLHVTHNDTKINNLLFTEGDTPCAVIDLDTCMPGLLMHDFGDMVRTCCSNLAEDDTNIDAMIIKLDIFSALIQSYQNAFGTKMSALEKDSLIVGTKSVPFSLGTRFLTDYLNGDSYFQVSREKHNLDRAFNQIQLFILLCEAEPELIKLAMQALEHHHHHH | failed |
| RPDVSRQSQFHTMALVNLSAKMIESCYFLRHFEQQWLLRFHLQAESVGLFSEGLLAFDGDGRICAANQSALNLLGTVRGGVLGKPLECFFACSHDEMFSRATPGG | failed |
| MDEILTNTATPEVGGVAQLSPSAARTKARIALAVMLVPLFGTLEAIRLWFTGQVHALDFILFAVFYAVQMFGVSMGYHRYLAHRAFKTSRLMSSLMLIAGCMAAQGPILFWVTTHRRHHTYSDQHGDPHSPNLMGQSRWQRAKGLWHAHMPWMLAPDMSSWNFFAPDILRDRRLFFYNQTYLFWVALGVILPGVIGGLVSQSWSGAWSGLIFGGLARIFVANQAAWCVGSICHRYGARPFVTHDQSTNNWIVAFLTFGEGLQNNHHAFPAWYRHGVHWWEPDLSGWTLALMGKLRLVSDLRSPSQAMIDKVRKRQASS | failed |
| MAHTVYENARIYTVNDQQPTASVLVVEQGKIIYVGGNDGAKQFKATAAELFDLEGKTVLPGFIESHAHPLEHHHHHH | failed |
| MGISPDAASKLYTVKFQPDPIDKKGWSVIDFNNCCTQDGGWYLNMGWGVESLIDNNPGTQWLCRWDVKEPLPYYFVFDMGKEYTLFRFGFANPVAPAAHVWAGTSKAGYVEASIDNENWVKLKDWTSPKIGEPNVNMDVPATQARYIRFVITDTYPTYDGLRVSLGEVYAWGLEHHHHHH | not failed |
| MLKRKLILIAYTLLGLSSPVFSADYITENLSTYMRKGAGDQYKISGAVQAGEKVTVLDRKDRFVLIRDSRNREGWVLASEISQTASPKDLIPQLQQQVQDLSSKLGKIDADWQQRTLEMQRRSQQAEQQSSQLLDQNAQLKRELDILKNKNRDLETMHDSAKREIVIQWFIYGGSVLAVGLLLGLIIPFILPRRKRHNGWS | failed |
| MSAPLVYHHTPPALLPLYGKALLPKSGKNHPEAVQIPRLEASLLGVTTDIPALRDYMKVCNFQPGTRLPVTWPHILAFPLHLKLLTEPAFPLPLLGLVHLRNSITQHRPLAAGENLDLKVILDNQKRTDRGLEFDLVTEARASGRLIWEEVSTNLFRITNGPGKTSPKPKPELETYPFSEAIKAPENLGRQYAKVSGDRNPIHMHALSARAFGFPRAIAHGMWSKARALALLENQKGWKDGPVRASCQFKKPLLLPGNAMLNWQTGKDGWDFQLLNAKGDAPHLTGRIDWL | failed |
| EAGYEAGTEYLNLDEQPATILDAEHLGIETKEPITIIERLRTANHKPVVYCLDKIAKTYLTCTDYQQSSGSMLEAIKASTNHQIMHAEMDLEAISYEPHISEVLNASPHEGLMLLKVVHYDEKHQPILYSLNYIKSSLVKFTITKSE | not failed |
| LKVMLRPILPEDEPKHLAFDNSLSDEDRYKRYFGVRSKMTHEEMAVLTQIDYAREMAFIATAKGPDGDDITLGAVRASIDPDNTEAEFAMAVRGDHQGIGLGKLLLEKLIKYYQANDTPVLTGFTMFENRNMASLAKNLGFKVTFDME | failed |
| MSLKAIGFEQPFKLSDGNLFKTFNLDIPEPKVHEILVKIQSISVNPVDTKQRLMDVSKAPRVLGFDAIGVVESVGNEVTMFNQGDIVYYSGSPDQNGSNAEYQLINERLVAKAPKNISAEQAVSLPLTGITAYETLFDVFGISRNRNENEGKTLLIINGAGGVGSIATQIAKAYGLRVITTASRNETIEWTKKMGADIVLNHKESLLNQFKTQGIELVDYVFCTFNTDMYYDDMIQLVKPRGHIATIVAFENDQDLNALKPKSLSFSHEFMFARPLNQTDDMIKHHEYLEDITNKVEQNIYQPTTTKVIEGLTTENIYQAHQILESNTMIGKLVINLNEGHHHHHH | not failed |
| MNELTQSDNYQLLNRELAAPDPWGLDANPFERERHTQMLRLALAQGSISSALEVGCAAGAFTVQLAPHCKRLTVIDVVPQAIERSRRRIRGSPHISWIVSDVQQFSPDERFDLIVVAEVLYYIGGIAEMRGAVRNLVRMLAPDGYLVFGSARDANCRRWGHVAGAETILGMLNETLLEVERLECRGESVNEDCLLACFRNPFSAS | failed |
| MSLKTTTSSTPSDRITWVRISSCYLPLATPISDAKVLTGRQKPMTEIAILFAEIETAGGHQGLGFSYSKRAGGPGQFAHAREIAPALIGEDPSDIAKLWDKLCWAGASAGRSGLSTQAIGAFDVALWDLKAKRAGLSLAKLLGSYRDSVRCYNTSGGFLHTPIDQLMVNASASIERGIGGIKLKVGQPDGALDIARVTAVRKHLGDAVPLMVDANQQWDRPTAQRMCRIFEPFNLVWIEEPLDAYDHEGHAALALQFDTPIATGEMLTSAAEHGDLIRHRAADYLMPDAPRVGGITPFLKIASLAEHAGLMLAPHFAMELHVHLAAAYPREPWVEHFEWLEPLFNERIEIRDGRMLVPTRPGLGLTLSGQVKAWTREEAQVGTRPEGHHHHHH | not failed |
| MNNLPLLNDLRVFMLVARRAGFAAAAEELGVSPAFVSKRVSLLEQTLNVMLLHRTTRRVTITEEGERIYEWAQRILQDVDEMMDELSDVRQVPQGTLRIISSFGFGRRVVAPALSALALQYPQLELRFDVQDRLVDLVNEGVDLDIRVGDDIAPNLIARQLAANHRVLCASPQFLARHAPPKQLSDLAALPCLVIKERDHPFGVWQLHSKEGQHAIKVTGPLSSNHGEIVHQWCLDGQGIALRSWWDVRENIASGHLVQVLPDYWQPANVWAVYVSRLATSAKIRTTVEFLRHYFQLHYPQHEPTASAVGRGD | failed |
| MPYLYLLLAIVSEVIGSAFLKSSDGFSKLYPTITTIISYLISFYFLSKTMQHLPLNIAYASWSGLGLVLTTIVSVLIFKEQINLISIISIILIIFGVVLLNTFGSSH | failed |
| TDRARRVIVLAQEEARGLNHNYIGTEHILLGLIHEGEGVAAKALESMGISLEAVRQEVEEIIGHGSEPPAGHIPFTPRAKKVLELSLREGLQMGHKYIGTEFLLLGLIREGDGVAAQVLVKLGADLPRVRQQVIQLLSGYEGGESPENNNEGEAVGAG | failed |
| TQEYLAPKTTVRVGLVQWQMRSYKTLDDLFEQVEFFVDAVSDYKSDFVLFPEYFNAPLMSKYNDKGESQAIRGLAQYTEEIRDRFINLAISYNINIITGSMPLIKEDGLLYNAGFLCRRDGTYEMYEKLHVTPDEIKSWGLSGGKQLKTFDTDCAKIGILICYDVEFPELSRLMADQGMQILFVPFLTDTQNAYSRVRVCAQARAIENECFVVIAGSVGNLPRVHNMDIQYAQSGVFTPCDFAFPTDGKRAEATPNTEMILVSDVDLDLLNELHTYGSVRNLKDRRNDVYEVRFKKP | failed |
| MKKLSGIIVLLLAGAALYLALKTSPIDPLAWDAPAAPQMTGVLEPNDTLMKAELLGQGQLHGPEDTAVDSQGRVYAGLADGRVVRLDASGKVETFVDTGGRPLGMDFDAAGNLILADAWKGLLRIDPQGKVETLATEADSVPFAFTDDLDIASDGRIYFSDASSKFHQPDYILDLLEARPHGRLLRYDPSTGKTEVLLKDLYFANGVALSANEDFVLVNETYRYRITRYWLKGEKAGQHEVFIDNLPGLPDNLQGDRKGTFWVALPTPRKADADFLHRHPWLKAQLAKLPRMFLPKPTAYGLVIAIDEQGRIVRSLHDTSGHHLRMITSAKPVGDQLYFGSLENDRIGRLAIPLEHHHHHH | not failed |
| MVFLIVPILTILGLSIHEAIGTSLACIAISSFSSAYTHLKKGKVHIKVVILKELFSIPAAVLGAYLTNDINEKILRVAFSMLLFYLAVRLTVKRRAKDSKEAKIHYERVPLVGVASGFLSGLLGISGGILNVPLFTIFVGIPIKYSIGTSSLALFFTALAGAITHLKEGNVVLSIALALAPGLIVGAYVGAIVSHRIHSDKLRVLFSALLLIIGVRMLV | failed |
